Laboratory results from article PMC11568366.

Biological target: SET/template-activating factor Iβ (SET/TAF-Iβ), recombinant (UniProt Q01105)
Assay: ITC; 300 μM reduced Cc injected (17 x 2.91 μL) into 30 μM SET/TAF-Iβ (as homodimer) in the cell, 25°C, 10 mM sodium phosphate pH 7.4; WT fitted with two cooperative binding sites, mutants with independent binding sites

Kd: 23 µM
dH: -4.6 kcal/mol
stoichiometry N: 2.2
Substance: Y48pCMF cytochrome c phosphomimetic mutant (reduced) (from UniProt P99999 2-105) (natural protein)
